According to doi:10.1101/2025.03.28.645925 (bioRxiv, 2025):
“And” between values parts separate entries of the source, which are not always exact repeats. Identical values can stand only once. Like-named read-outs stand apart in the source and are kept apart here.

What was measured:
[1] = target: NrdR2^PAO (GSGSGS-NrdR2, P. aeruginosa NrdR after TEV digestion) (P. aeruginosa PAO1); assay: SEC-MALS
[2] = target: NrdR2^PAO (GSGSGS-NrdR2, P. aeruginosa NrdR after TEV digestion) (P. aeruginosa PAO1); assay: SEC-MALS; remark: listed apart in the source
[3] = target: NrdR2^PAO (GSGSGS-NrdR2, P. aeruginosa NrdR after TEV digestion) (P. aeruginosa PAO1); assay: SEC-MALS; remark: listed apart in the source
[4] = target: NrdR1^PAO (P. aeruginosa NrdR with a two amino acid linker after SUMO protease digestion) (P. aeruginosa PAO1); assay: SEC
[5] = target: NrdR1^PAO (P. aeruginosa NrdR with a two amino acid linker after SUMO protease digestion) (P. aeruginosa PAO1); assay: SEC; remark: listed apart in the source
SEC = target: the molecule itself; assay: SEC
SEC-MALS [6] = target: the molecule itself; assay: SEC-MALS
P0A8D0 [7] = assay: SEC-MALS
P0A8D0 [8] = assay: SEC-MALS; remark: listed apart in the source
SEC-MALS [9] = target: the molecule itself; assay: SEC-MALS; remark: listed apart in the source
SEC-MALS [10] = target: the molecule itself; assay: SEC-MALS; remark: listed apart in the source
SEC-MALS [11] = target: the molecule itself; assay: SEC-MALS; remark: listed apart in the source
SEC-MALS [12] = target: the molecule itself; assay: SEC-MALS; remark: listed apart in the source
SEC-MALS [13] = target: the molecule itself; assay: SEC-MALS; remark: listed apart in the source

NrdR2^PAO (GSGSGS-NrdR2, P. aeruginosa NrdR after TEV digestion) (natural protein)
stoichiometry N [1]: 2 | stoichiometry N [2]: > 2 | stoichiometry N [3]: > 2

NrdR1^PAO (P. aeruginosa NrdR with a two amino acid linker after SUMO protease digestion) (natural protein)
stoichiometry N [4]: 6 and 2 | stoichiometry N [5]: 2 and 3

B1: NrdR^PAO-H6 (P. aeruginosa NrdR with a C-terminal 6His-tag) (natural protein, P. aeruginosa PAO1, UniProt Q9HWX1 1-154, looked up)
chain: MHCPFCGAHDTKVIDSRLVAEGDQVRRRRECLACGERFTTFETAELVMPRLIKQDGSRQPFDEDKLRAGMQRALEKRPVSVERLEAAIGHIKHQLRATGEREIKSRVLGELVMAELQKLDEVAYIRFASVYRRFQDLNEFREEIERLAREPAKE
binding result (SEC): binds

B2: SUMO-NrdR2^ECO Δ(132-149) (domain or fragment, E. coli K-12 MG1655)
chain: ENLYPQGSGSGSMHCPFCFAVDTKVIDSRLVGEGSSVRRRRQCLVCNERFTTFEVAELVMPRVVKSNDVREPFNEEKLRSGMLRALEKRPVSSDDVEMAINHIKSQLRATGEREVPSKMIGNLVMEQLKKLDKVAYIRFASVY
stoichiometry N (SEC-MALS [6]): 2

B3: SUMO-NrdR2^ECO E42A (natural protein, E. coli K-12 MG1655)
chain: ENLYPQGSGSGSMHCPFCFAVDTKVIDSRLVGEGSSVRRRRQCLVCNERFTTFAVAELVMPRVVKSNDVREPFNEEKLRSGMLRALEKRPVSSDDVEMAINHIKSQLRATGEREVPSKMIGNLVMEQLKKLDKVAYIRFASVYRSFEDIKEFGEEIARLED
stoichiometry N (SEC-MALS [6]): 2 | percent of the protein mass in the monomer peak (P0A8D0 [7]): 83% in a peak with average Mw 36.88 kDa | percent of the protein mass in the monomer peak (P0A8D0 [8]): 63% in a peak with average Mw 33.21 kDa

B4: SUMO-NrdR2^ECO (undigested 6His-SUMO-TEVcs-(SGSGS)-NrdR, E. coli), wild type (natural protein, E. coli K-12 MG1655)
chain: ENLYPQGSGSGSMHCPFCFAVDTKVIDSRLVGEGSSVRRRRQCLVCNERFTTFEVAELVMPRVVKSNDVREPFNEEKLRSGMLRALEKRPVSSDDVEMAINHIKSQLRATGEREVPSKMIGNLVMEQLKKLDKVAYIRFASVYRSFEDIKEFGEEIARLED
stoichiometry N (SEC-MALS [9]): 4 and 8 | stoichiometry N (SEC-MALS [10]): 12 | stoichiometry N (SEC-MALS [6]): 2 and ≥ 4

B5: SUMO-NrdR2^ECO Y131A (natural protein, E. coli K-12 MG1655)
chain: ENLYPQGSGSGSMHCPFCFAVDTKVIDSRLVGEGSSVRRRRQCLVCNERFTTFEVAELVMPRVVKSNDVREPFNEEKLRSGMLRALEKRPVSSDDVEMAINHIKSQLRATGEREVPSKMIGNLVMEQLKKLDKVAYIRFASVARSFEDIKEFGEEIARLED
stoichiometry N (SEC-MALS [10]): 4 and 8 and 3 | stoichiometry N (SEC-MALS [6]): 2

B6: SUMO-NrdR2^ECO E36A (natural protein, E. coli K-12 MG1655)
chain: ENLYPQGSGSGSMHCPFCFAVDTKVIDSRLVGEGSSVRRRRQCLVCNARFTTFEVAELVMPRVVKSNDVREPFNEEKLRSGMLRALEKRPVSSDDVEMAINHIKSQLRATGEREVPSKMIGNLVMEQLKKLDKVAYIRFASVYRSFEDIKEFGEEIARLED
stoichiometry N (SEC-MALS [9]): 3 | stoichiometry N (SEC-MALS [6]): 2 and ≥ 4

B7: NrdR2^ECO (GSGSGS-NrdR2, E. coli NrdR after TEV digestion) (natural protein, E. coli K-12 MG1655)
chain: GSGSGSMHCPFCFAVDTKVIDSRLVGEGSSVRRRRQCLVCNERFTTFEVAELVMPRVVKSNDVREPFNEEKLRSGMLRALEKRPVSSDDVEMAINHIKSQLRATGEREVPSKMIGNLVMEQLKKLDKVAYIRFASVYRSFEDIKEFGEEIARLED
stoichiometry N (SEC-MALS [11]): 6 | stoichiometry N (SEC-MALS [12]): 3 | stoichiometry N (SEC-MALS [13]): 4 to 10 (2×) and 8 | stoichiometry N (SEC-MALS [10]): 15 to 16 | stoichiometry N (SEC-MALS [6]): 2
